Test results reported in patent US20260028424A1 (GRANULAR THERAPEUTICS, published 2026).
Values belong to the binder of their own block, whether it stands above or below them.

Legend:
c-Kit on KU812 cells = molecular target: T1, c-Kit on KU812 cells (UniProt P10721 26-976, limits assumed); assay: flow cytometry on KU812 cells, which carry both c-Kit and CD203c; signal not separated by target
T1 construct: whole, on cells; also called c-Kit receptor; CD117
Experimental: (§1) All treatments were performed on cells seeded in T75 flasks at a seeding density of 0.3e6/ml. Cells were cultured in the presence of 80 ng/ml of SCF and treated with 20 ng/ml of IL3 24 hours prior to antibody staining. Following SCF/IL3 treatment, cells were harvested and stained with live dead stain (Zombie UV Biolegend 423108). Cells were then stained with a titration of anti-CD203c antibodies/bispecifics or respective isotype controls in a 5-fold dilution series starting at 50 μg/mL and detected with Anti human-Fc AF647 antibody (JIR 109-605-098). Samples were subsequently run on a Yeti analyzer, gating on 10K live cells. Subsequent analysis was performed using FlowJo software and data represented as MFI (median fluorescent intensity).
(§2) The purified proteins were assessed for co-operative binding to both targets, CD203c and c-Kit, on KU812 cells. […] This enhanced binding translates to potent inhibition of c-Kit receptor phosphorylation by the F6/MH1 bispecific molecule when compared to monovalent anti-c-kit, which is shown in FIG. 8.

[1] = molecular target: T2, human CD203c expressed on the surface of KU812 cells (human, UniProt O14638 1-875); assay: as above
T2 construct: whole, on cells; also called cell-surface CD203c; cell surface CD203c on KU812 cells
T2 sequence (looked up): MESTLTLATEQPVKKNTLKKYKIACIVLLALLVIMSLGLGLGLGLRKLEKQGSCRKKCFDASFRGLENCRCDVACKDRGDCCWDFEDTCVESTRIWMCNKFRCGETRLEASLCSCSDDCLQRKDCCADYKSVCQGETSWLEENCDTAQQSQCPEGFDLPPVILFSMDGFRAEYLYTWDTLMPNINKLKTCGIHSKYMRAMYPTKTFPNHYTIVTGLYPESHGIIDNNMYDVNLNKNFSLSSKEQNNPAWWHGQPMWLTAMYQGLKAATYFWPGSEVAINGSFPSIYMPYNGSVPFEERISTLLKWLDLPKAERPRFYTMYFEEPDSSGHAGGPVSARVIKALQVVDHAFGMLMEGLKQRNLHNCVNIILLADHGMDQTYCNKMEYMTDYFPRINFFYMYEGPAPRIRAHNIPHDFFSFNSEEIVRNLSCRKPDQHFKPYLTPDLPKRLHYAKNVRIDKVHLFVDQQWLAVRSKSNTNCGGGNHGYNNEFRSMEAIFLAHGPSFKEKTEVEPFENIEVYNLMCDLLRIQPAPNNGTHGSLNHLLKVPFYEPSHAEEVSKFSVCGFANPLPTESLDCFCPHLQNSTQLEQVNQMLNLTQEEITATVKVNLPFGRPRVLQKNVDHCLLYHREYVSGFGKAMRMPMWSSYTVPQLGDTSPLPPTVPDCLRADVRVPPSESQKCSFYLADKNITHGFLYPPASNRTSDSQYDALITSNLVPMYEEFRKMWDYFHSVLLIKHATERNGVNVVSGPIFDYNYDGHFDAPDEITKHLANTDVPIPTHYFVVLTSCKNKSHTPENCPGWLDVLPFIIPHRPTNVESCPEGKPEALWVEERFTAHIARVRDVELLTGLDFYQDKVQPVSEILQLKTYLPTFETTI
Experimental: as §1, §2

[2] = molecular target: c-Kit (antigen of the binding assay of FIG. 9A) (Homo sapiens (Human), UniProt P10721 26-524); assay: plate binding assay on Human c-KIT, A450-A630 (ratio corrected)
Sequence of c-Kit (antigen of the binding assay of FIG. 9A) (P10721 26-524 limits assumed): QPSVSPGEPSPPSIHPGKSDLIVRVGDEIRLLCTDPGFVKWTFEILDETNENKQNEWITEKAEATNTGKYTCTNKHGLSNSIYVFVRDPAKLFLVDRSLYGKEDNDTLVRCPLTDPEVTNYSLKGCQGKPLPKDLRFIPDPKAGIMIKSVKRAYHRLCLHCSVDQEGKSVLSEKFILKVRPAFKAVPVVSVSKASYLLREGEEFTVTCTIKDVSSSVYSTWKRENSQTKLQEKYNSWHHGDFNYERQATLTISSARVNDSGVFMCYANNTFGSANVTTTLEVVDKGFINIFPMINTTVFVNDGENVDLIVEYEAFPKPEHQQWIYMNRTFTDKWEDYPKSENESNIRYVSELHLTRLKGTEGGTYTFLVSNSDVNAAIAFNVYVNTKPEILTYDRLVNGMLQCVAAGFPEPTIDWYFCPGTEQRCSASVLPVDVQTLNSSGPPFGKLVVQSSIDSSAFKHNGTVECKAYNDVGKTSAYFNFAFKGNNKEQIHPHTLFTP

[3] = molecular target: T3, CD203c (ENPP3) (antigen of the binding assay of FIG. 9B) (Homo sapiens (Human), UniProt O14638 31-875); assay: plate binding assay on Human ENPP3, A450-A630 (ratio corrected)
T3 construct: not shown: His tag of the recombinant protein
T3 sequence: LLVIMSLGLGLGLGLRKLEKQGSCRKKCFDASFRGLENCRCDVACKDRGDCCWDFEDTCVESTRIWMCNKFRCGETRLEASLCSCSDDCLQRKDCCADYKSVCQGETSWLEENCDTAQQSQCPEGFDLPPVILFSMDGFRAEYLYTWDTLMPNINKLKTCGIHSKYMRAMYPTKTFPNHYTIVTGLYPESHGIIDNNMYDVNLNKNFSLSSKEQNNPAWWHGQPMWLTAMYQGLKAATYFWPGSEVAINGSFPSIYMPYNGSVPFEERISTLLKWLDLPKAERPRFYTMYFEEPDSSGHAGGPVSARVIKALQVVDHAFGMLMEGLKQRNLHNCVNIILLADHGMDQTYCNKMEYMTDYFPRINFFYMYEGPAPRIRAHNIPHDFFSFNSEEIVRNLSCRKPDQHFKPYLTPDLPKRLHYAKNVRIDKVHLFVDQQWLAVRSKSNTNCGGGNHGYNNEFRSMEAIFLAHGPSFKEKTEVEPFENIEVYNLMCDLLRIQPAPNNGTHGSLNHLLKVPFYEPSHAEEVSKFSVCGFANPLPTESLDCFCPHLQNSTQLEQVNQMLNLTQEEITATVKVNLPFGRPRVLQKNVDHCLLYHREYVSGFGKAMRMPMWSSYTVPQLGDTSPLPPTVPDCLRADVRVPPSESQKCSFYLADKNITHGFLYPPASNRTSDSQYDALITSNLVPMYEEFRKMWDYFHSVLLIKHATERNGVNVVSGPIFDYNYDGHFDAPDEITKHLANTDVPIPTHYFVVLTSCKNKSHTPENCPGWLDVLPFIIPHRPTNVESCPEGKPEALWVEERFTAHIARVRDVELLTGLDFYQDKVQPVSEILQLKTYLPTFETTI

[4] = molecular target: T4, biotinylated human CD203c (bio-huCD203c, Acro, Cat. nr. H52H4) (human, UniProt O14638 49-875, limits assumed, biotinylated (site not stated)); assay: SPR (Biacore), biotinylated CD203c captured on the chip, Fab as analyte 1000 - 7.81 nM; response-versus-concentration fits in FIG. 11A-11C
T4 construct: Captured on a Biotin CAPture chip for SPR
T4 sequence (looked up): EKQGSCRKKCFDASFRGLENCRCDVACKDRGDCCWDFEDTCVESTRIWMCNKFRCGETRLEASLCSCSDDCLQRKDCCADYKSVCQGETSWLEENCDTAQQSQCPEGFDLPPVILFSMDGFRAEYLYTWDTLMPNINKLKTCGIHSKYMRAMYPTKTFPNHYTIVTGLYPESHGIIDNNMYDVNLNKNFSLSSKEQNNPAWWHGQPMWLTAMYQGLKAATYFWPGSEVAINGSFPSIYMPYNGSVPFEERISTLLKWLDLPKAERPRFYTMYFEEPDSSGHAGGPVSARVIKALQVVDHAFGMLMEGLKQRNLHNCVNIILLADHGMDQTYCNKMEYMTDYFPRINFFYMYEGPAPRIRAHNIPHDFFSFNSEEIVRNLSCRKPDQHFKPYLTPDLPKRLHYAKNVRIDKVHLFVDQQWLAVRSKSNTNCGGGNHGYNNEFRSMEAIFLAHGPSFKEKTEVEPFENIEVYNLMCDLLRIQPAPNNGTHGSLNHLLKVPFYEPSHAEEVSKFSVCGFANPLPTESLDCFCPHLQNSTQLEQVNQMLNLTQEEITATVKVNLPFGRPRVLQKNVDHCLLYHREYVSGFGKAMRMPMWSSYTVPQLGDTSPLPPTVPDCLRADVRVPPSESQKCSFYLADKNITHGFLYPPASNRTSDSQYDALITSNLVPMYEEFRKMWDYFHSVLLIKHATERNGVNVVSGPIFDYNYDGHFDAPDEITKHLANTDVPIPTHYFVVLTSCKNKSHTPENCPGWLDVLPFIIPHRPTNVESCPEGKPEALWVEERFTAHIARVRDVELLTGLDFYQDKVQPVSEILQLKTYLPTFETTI
Experimental: (§3) Biotinylated versions of the CD203c proteins were captured on a BiotinCap chip, and the antibodies injected in-solution in 2-fold serial dilutions. An SPR affinity determination assay was carried out on a BIAcore T20 using the conditions described below: [0212] […] Ligand Capture—biotinylated antigen: bio-huCD203c (Acro, Cat. nr. H52H4) and bio-cyCD203c (Icosagen) at 20 nM and 10 nM, respectively, in 1×HBS-EP+pH 7.4, on flow cell 2 over 1 min at 10 μl/min [0215] […] Complete blank assay runs without analyte antibody were included as blank reference. [0216] […] Regeneration: Baseline levels were restored using the regeneration solutions provided in the Biotin CAPture kit [0218] SPR running buffer: 1×HBS-EP+pH 7.4 (Cytiva; cat. nr. BR100669) [0219] Analysis: Data was analyzed using the Biacore Insight Evaluation Software by the steady state affinity model or the 1:1 binding model. Sensorgrams were referenced to flow cell 1 and the 0 nM concentration cycle.

[5] = molecular target: T5, biotinylated cynomolgus CD203c (bio-cyCD203c, Icosagen) (cynomolgus monkey, UniProt A0A2K5TKP4 31-874, biotinylated (site not stated)); assay: as above
T5 construct: Captured on a Biotin CAPture chip for SPR; also called cyno CD203c
T5 sequence: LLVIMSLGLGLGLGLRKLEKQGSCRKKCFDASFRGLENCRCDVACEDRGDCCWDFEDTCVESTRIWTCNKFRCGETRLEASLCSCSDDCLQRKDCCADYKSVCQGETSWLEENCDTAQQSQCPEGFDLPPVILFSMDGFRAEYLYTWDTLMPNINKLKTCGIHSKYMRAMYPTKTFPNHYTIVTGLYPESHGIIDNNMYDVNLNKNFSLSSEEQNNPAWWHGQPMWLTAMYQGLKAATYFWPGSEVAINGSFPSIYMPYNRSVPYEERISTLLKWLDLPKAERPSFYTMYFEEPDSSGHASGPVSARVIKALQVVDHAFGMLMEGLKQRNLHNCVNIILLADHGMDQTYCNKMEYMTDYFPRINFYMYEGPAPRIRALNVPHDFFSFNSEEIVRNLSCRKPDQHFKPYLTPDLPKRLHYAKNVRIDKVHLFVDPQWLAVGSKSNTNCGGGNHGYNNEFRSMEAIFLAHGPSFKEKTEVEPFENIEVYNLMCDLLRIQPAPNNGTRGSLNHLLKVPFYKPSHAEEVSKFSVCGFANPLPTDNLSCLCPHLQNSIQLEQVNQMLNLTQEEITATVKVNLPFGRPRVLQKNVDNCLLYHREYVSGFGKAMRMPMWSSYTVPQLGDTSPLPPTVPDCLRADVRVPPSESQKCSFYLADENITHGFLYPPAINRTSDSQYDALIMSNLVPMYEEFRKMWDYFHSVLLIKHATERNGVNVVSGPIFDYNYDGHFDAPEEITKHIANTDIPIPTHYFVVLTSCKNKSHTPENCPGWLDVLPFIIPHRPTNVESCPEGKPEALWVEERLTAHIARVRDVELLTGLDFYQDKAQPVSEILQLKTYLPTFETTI
Experimental: as §3

T1 sequence (P10721 26-976 limits assumed): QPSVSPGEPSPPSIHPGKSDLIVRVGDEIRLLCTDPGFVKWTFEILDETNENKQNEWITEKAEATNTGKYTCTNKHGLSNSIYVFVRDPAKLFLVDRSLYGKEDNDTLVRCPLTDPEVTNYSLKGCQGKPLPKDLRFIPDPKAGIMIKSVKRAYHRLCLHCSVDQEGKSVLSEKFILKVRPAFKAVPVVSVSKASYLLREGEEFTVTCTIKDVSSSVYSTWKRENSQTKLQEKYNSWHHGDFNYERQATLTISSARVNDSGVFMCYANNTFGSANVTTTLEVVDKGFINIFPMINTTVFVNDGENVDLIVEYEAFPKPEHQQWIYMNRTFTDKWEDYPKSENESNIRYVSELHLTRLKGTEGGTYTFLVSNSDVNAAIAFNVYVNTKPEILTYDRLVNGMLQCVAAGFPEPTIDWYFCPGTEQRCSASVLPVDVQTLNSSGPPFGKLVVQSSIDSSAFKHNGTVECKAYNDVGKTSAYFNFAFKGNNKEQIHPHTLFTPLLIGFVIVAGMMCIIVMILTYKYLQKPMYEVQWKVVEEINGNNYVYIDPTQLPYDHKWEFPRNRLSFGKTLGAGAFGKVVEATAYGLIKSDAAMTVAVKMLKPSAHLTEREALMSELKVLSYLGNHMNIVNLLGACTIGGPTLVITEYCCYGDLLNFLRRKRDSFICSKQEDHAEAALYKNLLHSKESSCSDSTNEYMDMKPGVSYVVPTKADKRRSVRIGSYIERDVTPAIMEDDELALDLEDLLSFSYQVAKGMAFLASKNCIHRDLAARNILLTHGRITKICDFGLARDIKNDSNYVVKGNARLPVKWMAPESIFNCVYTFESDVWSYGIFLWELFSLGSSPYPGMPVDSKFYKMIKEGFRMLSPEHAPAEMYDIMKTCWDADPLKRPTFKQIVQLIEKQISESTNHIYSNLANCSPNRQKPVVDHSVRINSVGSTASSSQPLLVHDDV

- binding result (c-Kit on KU812 cells): binds
- binding result [1]: binds
B1: 1.27/MH1 common light chain bispecific (anti-CD203c 1.27 x anti-c-Kit MH1) (bispecific antibody, V domains shown)
VH 1: QVQLVQSGAEVKKPGASVKVSCKASGYTFTDYYMNWVRQAPGQGLEWMGRIYPGSGNTYYAQKFQGRVTMTRDTSTSTVYMELSSLRSEDTAVYYCARGVYYYDYWGQGTLVTVSS
VH 2: EVQLVQSGAEVKKPGESLKISCKGSGYRFTSYWIGWVRQMPGKGLEWMGIIYPGDSDTRYSPSFQGQVTISADKSISTAYLQWSSLKASDTAMYYCARKDYYYYAMDVWGQGTTVTVSS
VL: DIQMTQSPSSLSASVGDRVTITCRASQGIRTNLAWFQQKPGKAPKSLIYAASSLQSGVPSRFSGSGSGTDFTLTISSLQPEDFATYYCQQYNSYPRTFGGGTKVEIK
notes: Knob-in-hole IgG1null bispecific with human Ckappa

- EC50 (read off the curve) [2]: ~0.1 µg/mL
- binding result [3]: no binding (tested: 200 µg/ml)
B2: bispecific pair with alternative common light chain VL3: MH1 VH / 2.14_1 VH / VL3 (bispecific antibody, V domains shown)
VH 1: B1 VH 1
VH 2: QVQLQESGPGLVKPSQTLSLTCTVSGGSISSGGYYWSWIRQHPGKGLEWIGIIYYSGSTYYNPSLKSRVTISVDTSKNQFSLKLNSVTAADTAVFYCARVAIVTTIPGGMDVWGQGTTVTVSS
VL: EIVLTQSPDFQSVTPKEKVTITCRASQGIRTNLAWYQQKPDQSPKLLIKAASSLQSGVPSRFSGSGSGTDFTLTINSLEAEDAATYYCQQYNSYPRTFGQGTKVEIK

- Kd [4]: 705 nM
- Kd [5]: 387 nM
B3: 1.27-Fab (Fab, V domains shown)
VH: B1 VH 2
VL: B1 VL
